Test results reported in article PMC4861429 (The Journal of Biological Chemistry, 2016).
Changes are numbered by the printed parent chain. Names and notes keep the numbering of the source.

B1: dimerization helix-containing PAS1 (residues 23–168) of TodS (domain or fragment, Pseudomonas putida F1, UniProt A5W4E3 23-168, looked up)
chain: KEKGSEELTCEEHARIIFDGLYEFVGLLDAHGNVLEVNQVALEGGGITLEEIRGKPFWKARWWQISKKTEATQKRLVETASSGEFVRCDVEILGKSGGREVIAVDFSLLPICNEEGSIVYLLAEGRNITDKKKAEAMLALKNQELE
notes: TodS sensor kinase of Pseudomonas putida F1, residues 23–168 (PAS1 domain with the predicted dimerization helix); In pHis-Parallel1 (NcoI/XhoI), which has a TEV site after the His6 tag; the tag was not removed for this construct; The forward primer adds Met-Gly before Lys23; also called PAS1(23–168); WT PAS1(23–168); source: E. coli C41(DE3), purified (Ni-NTA only); not shown: His6, …
B2: F46A-PAS1(23–168) (domain or fragment, Pseudomonas putida F1, UniProt A5W4E3 23-168, looked up)
chain: B1 chain with F24A
notes: TodS sensor kinase of Pseudomonas putida F1, residues 23–168 with F46A; source: E. coli C41(DE3), purified (Ni-NTA only); not shown: His6, N-terminal, kept
B3: V59A-PAS1(23–168) (domain or fragment, Pseudomonas putida F1, UniProt A5W4E3 23-168, looked up)
chain: B1 chain with V37A
notes: TodS sensor kinase of Pseudomonas putida F1, residues 23–168 with V59A; source: E. coli C41(DE3), purified (Ni-NTA only); not shown: His6, N-terminal, kept
B4: W85H-PAS1(23–168) (domain or fragment, Pseudomonas putida F1, UniProt A5W4E3 23-168, looked up)
chain: B1 chain with W63H
notes: TodS sensor kinase of Pseudomonas putida F1, residues 23–168 with W85H; source: E. coli C41(DE3), purified (Ni-NTA only); not shown: His6, N-terminal, kept
B5: E146A-PAS1(23–168) (domain or fragment, Pseudomonas putida F1, UniProt A5W4E3 23-168, looked up)
chain: B1 chain with E124A
notes: TodS sensor kinase of Pseudomonas putida F1, residues 23–168 with E146A; also called E146A mutant; source: E. coli C41(DE3), purified (Ni-NTA only); not shown: His6, N-terminal, kept
B6: F79Y-PAS1(23–168) (domain or fragment, Pseudomonas putida F1, UniProt A5W4E3 23-168, looked up)
chain: B1 chain with F57Y
notes: TodS sensor kinase of Pseudomonas putida F1, residues 23–168 with F79Y; source: E. coli C41(DE3), purified (Ni-NTA only); not shown: His6, N-terminal, kept
B7: TodS PAS2 (residues 611–729) (domain or fragment, Pseudomonas putida F1, UniProt A5W4E3 611-729, looked up)
chain: SEARWKAVYENSAAGIVLTDPENRILNANPAFQRITGYGEKDLEGLSMEQLTPSDESPQIKQRLANLLQGGGAEYSVERSYLCKNGSTIWANASVSLMPQRVGESPVILQIIDDITEKK
notes: TodS sensor kinase of Pseudomonas putida F1, residues 611–729 (PAS2 domain); also called PAS2(611–729); source: E. coli BL21 Star (DE3), purified (Ni-NTA, TEV protease, SEC Superdex G75, second Ni-NTA); not shown: His6, N-terminal, cleaved
B8: dimerization helix-containing TodS (residues 23–978) (enzyme, Pseudomonas putida F1, UniProt A5W4E3 23-978, looked up)
chain: KEKGSEELTCEEHARIIFDGLYEFVGLLDAHGNVLEVNQVALEGGGITLEEIRGKPFWKARWWQISKKTEATQKRLVETASSGEFVRCDVEILGKSGGREVIAVDFSLLPICNEEGSIVYLLAEGRNITDKKKAEAMLALKNQELEQSVECIRKLDNAKSDFFAKVSHELRTPLSLILGPLEAVMAAEAGRESPYWKQFEVIQRNAMTLLKQVNTLLDLAKMDARQMGLSYRRANLSQLTRTISSNFEGIAQQKSITFDTKLPVQMVAEVDCEKYERIILNLLSNAFKFTPDGGLIRCCLSLSRPNYALVTVSDSGPGIPPALRKEIFERFHQLSQEGQQATRGTGLGLSIVKEFVELHRGTISVSDAPGGGALFQVKLPLNAPEGAYVASNTAPRRDNPQVVDTDEYLLLAPNAENEAEVLPFQSDQPRVLIVEDNPDMRGFIKDCLSSDYQVYVAPDGAKALELMSNMPPDLLITDLIMPVMSGDMLVHQVRKKNELSHIPIMVLSAKSDAELRVKLLSESVQDFLLKPFSAHELRARVSNLVSMKVAGDALRKELSDQGDDIAILTHRLIKSRHRLQQSNIALSASEARWKAVYENSAAGIVLTDPENRILNANPAFQRITGYGEKDLEGLSMEQLTPSDESPQIKQRLANLLQGGGAEYSVERSYLCKNGSTIWANASVSLMPQRVGESPVILQIIDDITEKKQAQENLNQLQQQLVYVSRSATMGEFAAYIAHEINQPLSAIMTNANAGTRWLGNEPSNIPEAKEALARIIRDSDRAAEIIRMVRSFLKRQETVLKPIDLKALVTDTSLILKAPSQNNSVNLDVVADDELPEIWGDGVQIQQLIINLAMNAIEAISQADCETRQLTLSFSGNDTGDALVISVKDTGPGISERQMAQLFNAFYTTKKEGLGMGLAICLTITEVHNGKIWVECPPAGGACFLVSIPARQGSGT
notes: In pGST-Parallel1 (BamHI/XhoI); not shown: GST, N-terminal, cleaved
B9: TodS (residues 43–978), C-terminal His6-tagged (enzyme, Pseudomonas putida F1, UniProt A5W4E3 43-978, looked up)
chain: LYEFVGLLDAHGNVLEVNQVALEGGGITLEEIRGKPFWKARWWQISKKTEATQKRLVETASSGEFVRCDVEILGKSGGREVIAVDFSLLPICNEEGSIVYLLAEGRNITDKKKAEAMLALKNQELEQSVECIRKLDNAKSDFFAKVSHELRTPLSLILGPLEAVMAAEAGRESPYWKQFEVIQRNAMTLLKQVNTLLDLAKMDARQMGLSYRRANLSQLTRTISSNFEGIAQQKSITFDTKLPVQMVAEVDCEKYERIILNLLSNAFKFTPDGGLIRCCLSLSRPNYALVTVSDSGPGIPPALRKEIFERFHQLSQEGQQATRGTGLGLSIVKEFVELHRGTISVSDAPGGGALFQVKLPLNAPEGAYVASNTAPRRDNPQVVDTDEYLLLAPNAENEAEVLPFQSDQPRVLIVEDNPDMRGFIKDCLSSDYQVYVAPDGAKALELMSNMPPDLLITDLIMPVMSGDMLVHQVRKKNELSHIPIMVLSAKSDAELRVKLLSESVQDFLLKPFSAHELRARVSNLVSMKVAGDALRKELSDQGDDIAILTHRLIKSRHRLQQSNIALSASEARWKAVYENSAAGIVLTDPENRILNANPAFQRITGYGEKDLEGLSMEQLTPSDESPQIKQRLANLLQGGGAEYSVERSYLCKNGSTIWANASVSLMPQRVGESPVILQIIDDITEKKQAQENLNQLQQQLVYVSRSATMGEFAAYIAHEINQPLSAIMTNANAGTRWLGNEPSNIPEAKEALARIIRDSDRAAEIIRMVRSFLKRQETVLKPIDLKALVTDTSLILKAPSQNNSVNLDVVADDELPEIWGDGVQIQQLIINLAMNAIEAISQADCETRQLTLSFSGNDTGDALVISVKDTGPGISERQMAQLFNAFYTTKKEGLGMGLAICLTITEVHNGKIWVECPPAGGACFLVSIPARQGSGT
notes: In pET28b(+) (NcoI/XhoI); source: E. coli BL21 Star (DE3), purified (Ni-NTA, SEC Superdex G200); not shown: His6, C-terminal, kept

Key:
[1] = molecular target: the molecule itself; test: SEC; purified His6-tagged PAS1(23–168) compared with the markers BSA (66 kDa) and carbonic anhydrase (29 kDa)
[2] = molecular target: the molecule itself; test: not stated; the protein used for ITC is called 'the E146A mutant dimer'; how the dimer was shown for this mutant is not told
[3] = molecular target: the molecule itself; test: SEC; purified PAS2(611–729) compared with the marker carbonic anhydrase (29 kDa)
[4] = molecular target: the molecule itself; test: SEC-MALS; TodS(23–978) 1 mg/ml on Superdex G200, PBS pH 7.3 with 10% glycerol and 5 mM DTT, 0.25 ml/min, 25 °C
[5] = molecular target: the molecule itself; test: negative-stain electron microscopy with Ni-NTA gold labelling; Ni-NTA gold (5 nm) on C-terminal His6-tagged TodS(43–978), negatively stained with 1% uranyl acetate

Row | Protein | stoichiometry N [1] | also measured
1 | B1 | 2 | –
2 | B2 | 2 | –
3 | B3 | 2 | –
4 | B4 | 2 | –
5 | B5 | – | stoichiometry N [2]: 2
6 | B6 | 2 | –
7 | B7 | – | stoichiometry N [3]: 2
8 | B8 | – | stoichiometry N [4]: 2
9 | B9 | – | stoichiometry N [5]: 2
